The record followed here is US20180238866A1 (University of California, published 2018).

Where no end group is shown, it is not given here.

B1: scrambled site 2 peptide of β3 (S2-β3scr), GST fusion (peptide)
chain: HHHHHHVHDSHYSGQGAMSDNTNSPQT
modifications: also: GST fusion protein, GST not in chain
notes: Control peptide; also called scrambled S2-β3 peptide; scrambled β3 peptide; not shown: glutathione S-transferase (GST) from vector pGEX-2T
B2: disintegrin domain of human ADAM15, GST fusion protein (ligand)
chain: not shown
modifications: FITC-labeled in the flow cytometry assays
notes: domain: disintegrin domain; also called ADAM15 disintegrin domain; not shown: glutathione S-transferase (GST) fusion partner
B3: rat fibronectin type III domains 8-11 (FN8-11), GST fusion protein (ligand)
chain: not shown
modifications: FITC-labeled in the flow cytometry assays
notes: domain: Fibronectin type III domains 8-11; also called RGD-containing fibronectin fragment; not shown: glutathione S-transferase (GST) fusion partner
B4: secreted phospholipase A2 type IIA (sPLA2-IIA), wild type, recombinant (enzyme)
chain: NLVNFHRMIKLTTGKEAALSYGFYGCHCGVGGRGSPKDATDRCCVTHDCCYKRLEKRGCGTKFLSYKFSNSGSRITCAKQDSCRSQLCECDKAAATCFARNKTTYNKKYQYYSNKHCRGSTPRC
modifications: FITC-labeled in the flow cytometry binding assays of FIG. 7a-b ; FITC-labelled in the flow cytometry binding assays (FIG. 7a-b).
notes: PDB 1DCY was used for it in the docking simulation; also called WT sPLA2-IIA; sPLA-IIA
B5: Fibrinogen γ-chain C-terminal domain that lacks residues 400-411 (γC399tr) (ligand, UniProt P02679 177-425, looked up)
chain: KDCQDIANKGAKQSGLYFIKPLKANQQFLVYCEIDGSGNGWTVFQKRLDGSVDFKKNWIQYKEGFGHLSPTGTTEFWLGNEKIHLISTQSAIPYALRVELEDWNGRTSTADYAMFKVGPEADKYRLTYAYFAGGDAGDAFDGFDFGDDPSDKFFTSHNGMQFSTWDNDNDKFEGNCAEQDGSGWWMNKCHAGHLNGVYYQGGTYSKASTPNGYDNGIIWATWKTRWYSMKKTTMKIIPFNRLTIGEGQQ
modifications: FITC-labeled in the flow cytometry assays
notes: domain: Fibrinogen γ-chain C-terminal domain that lacks residues 400-411

Experiment [1] deals with B4. Put plainly: ELISA-type: GST-tagged peptide on immobilized sPLA2-IIA, anti-GST-HRP. (In general: ELISA stands for enzyme-linked immunosorbent assay.)
Experiment [2] has as its target T1, integrin αvβ3 on the cell surface of U937 cells and of K562 cells that express human integrin αvβ3 (human, UniProt P06756 31-1048; P05106 27-788).
T1 construct: whole, on cells; Two cell types carry the same human integrin; also called αvβ3 on U937; αvβ3-K562
Put plainly: flow cytometry, FITC-labeled ADAM15 on U937 and αvβ3-K562 cells, with sPLA2-IIA (20 µg/ml). (In general: A flow cytometer gives signals particle by particle.)
Source text: Data are shown as means (MFI)±SEM of three independent experiments.
(§1) The cells were washed with PBS/0.02% BSA and analyzed by FACSCalibur (Becton Dickinson, Mountain View, Calif.).

Experiment [3] addresses T2, integrin α5β1 on K562 cells and U937 cells (UniProt P08648 42-1049; P05556 21-798, limits assumed).
T2 construct: whole, on cells
The experiment in a line: flow cytometry, FITC-FN8-11 on U937 and K562 cells, with sPLA2-IIA.
Procedure: Bound FITC was measured using flow cytometry.
as §1

In experiment [4] the target is T2, integrin α5β1 on K562 cells and U937 …. The experiment in a line: flow cytometry, FITC-sPLA2-IIA (10 µg/ml) on K562 cells.
Procedure: Bound FITC was measured using flow cytometry. Data are shown as means±SEM of MFI of three independent experiments. c. […] Data are shown as means±SEM of % adhesion of three independent experiments. d-f. […] Data are shown as means±SEM of MFI of three independent experiments. […] Data are shown as means±SEM of MFI of three independent experiments, j-l. […] Data are shown as means±SEM of MFI of three independent experiments.
A further experiment deals with T3, control GST (UniProt P08515 1-218 = GST).
T3 construct: Control protein
Put plainly: ELISA-type: GST-tagged protein on immobilized sPLA2-IIA, anti-GST-HRP.

The target in experiment [5] is T1, integrin αvβ3 on the cell surface of …. Put plainly: flow cytometry, FITC-γC399tr on U937 and αvβ3-K562 cells with sPLA2-IIA (20 µg/ml) and Cmpd21.
Source text: as §1
The target in experiment [6] is T4, recombinant soluble integrin αvβ3 (UniProt P06756 31-992; P05106 27-718, limits assumed).
T4 construct: also called soluble αvβ3
Put plainly: ELISA-type: soluble αvβ3 (5 µg/ml) on immobilized γC399tr, 1 mM Ca2+, with sPLA2-IIA; bound αvβ3 detected with anti-β3 mAb AV-10.
Procedure: Remaining protein binding sites were blocked by incubating with PBS/0.1% BSA for 30 min at room temperature.

T1 sequence (P06756 31-1048, chain 1 of 2): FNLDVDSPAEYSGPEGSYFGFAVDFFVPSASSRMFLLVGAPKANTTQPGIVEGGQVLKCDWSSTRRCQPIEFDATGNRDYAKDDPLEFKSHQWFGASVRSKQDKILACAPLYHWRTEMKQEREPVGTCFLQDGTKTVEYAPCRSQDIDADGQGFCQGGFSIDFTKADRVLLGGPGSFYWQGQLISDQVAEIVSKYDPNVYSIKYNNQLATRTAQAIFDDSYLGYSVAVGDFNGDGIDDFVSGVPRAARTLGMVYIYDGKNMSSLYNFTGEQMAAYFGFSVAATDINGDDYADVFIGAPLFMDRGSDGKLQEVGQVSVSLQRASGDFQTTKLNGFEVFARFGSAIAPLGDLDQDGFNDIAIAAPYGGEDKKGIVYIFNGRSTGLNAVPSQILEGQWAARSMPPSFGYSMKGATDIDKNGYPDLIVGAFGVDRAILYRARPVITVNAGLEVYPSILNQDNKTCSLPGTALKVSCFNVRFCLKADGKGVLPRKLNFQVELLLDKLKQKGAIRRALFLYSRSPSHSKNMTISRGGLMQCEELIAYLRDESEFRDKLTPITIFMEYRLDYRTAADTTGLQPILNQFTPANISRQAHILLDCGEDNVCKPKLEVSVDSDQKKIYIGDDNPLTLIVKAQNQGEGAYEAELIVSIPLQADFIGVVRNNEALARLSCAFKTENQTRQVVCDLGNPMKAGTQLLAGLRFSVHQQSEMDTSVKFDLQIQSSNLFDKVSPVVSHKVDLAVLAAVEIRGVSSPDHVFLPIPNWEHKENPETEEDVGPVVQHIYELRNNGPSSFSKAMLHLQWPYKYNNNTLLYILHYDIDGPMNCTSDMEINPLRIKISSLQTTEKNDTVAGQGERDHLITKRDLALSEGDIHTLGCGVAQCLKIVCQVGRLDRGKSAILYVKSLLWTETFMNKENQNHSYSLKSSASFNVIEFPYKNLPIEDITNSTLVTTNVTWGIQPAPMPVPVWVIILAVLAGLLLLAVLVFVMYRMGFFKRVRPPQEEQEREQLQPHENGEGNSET
T1 sequence (P05106 27-788, chain 2 of 2): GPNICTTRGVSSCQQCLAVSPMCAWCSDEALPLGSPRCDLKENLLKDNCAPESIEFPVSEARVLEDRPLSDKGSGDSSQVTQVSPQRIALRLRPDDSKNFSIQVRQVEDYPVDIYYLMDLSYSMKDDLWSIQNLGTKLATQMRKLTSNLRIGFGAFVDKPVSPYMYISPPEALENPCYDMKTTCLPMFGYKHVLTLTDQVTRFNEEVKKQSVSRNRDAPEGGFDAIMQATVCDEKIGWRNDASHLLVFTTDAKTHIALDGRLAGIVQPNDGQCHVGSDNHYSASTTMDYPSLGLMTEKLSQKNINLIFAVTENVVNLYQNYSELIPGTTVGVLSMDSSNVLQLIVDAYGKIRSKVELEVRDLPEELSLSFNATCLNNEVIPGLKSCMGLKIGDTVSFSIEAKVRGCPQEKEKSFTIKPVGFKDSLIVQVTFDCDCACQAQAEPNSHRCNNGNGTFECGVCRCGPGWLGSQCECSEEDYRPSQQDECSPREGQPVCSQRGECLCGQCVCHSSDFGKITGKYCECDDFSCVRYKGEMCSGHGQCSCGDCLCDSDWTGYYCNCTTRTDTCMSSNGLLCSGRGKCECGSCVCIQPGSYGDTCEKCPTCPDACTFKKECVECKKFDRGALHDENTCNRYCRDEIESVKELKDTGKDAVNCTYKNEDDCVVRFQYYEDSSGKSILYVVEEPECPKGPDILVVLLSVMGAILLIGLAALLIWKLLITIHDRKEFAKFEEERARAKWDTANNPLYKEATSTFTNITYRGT
T2 sequence (P08648 42-1049 limits assumed, chain 1 of 2): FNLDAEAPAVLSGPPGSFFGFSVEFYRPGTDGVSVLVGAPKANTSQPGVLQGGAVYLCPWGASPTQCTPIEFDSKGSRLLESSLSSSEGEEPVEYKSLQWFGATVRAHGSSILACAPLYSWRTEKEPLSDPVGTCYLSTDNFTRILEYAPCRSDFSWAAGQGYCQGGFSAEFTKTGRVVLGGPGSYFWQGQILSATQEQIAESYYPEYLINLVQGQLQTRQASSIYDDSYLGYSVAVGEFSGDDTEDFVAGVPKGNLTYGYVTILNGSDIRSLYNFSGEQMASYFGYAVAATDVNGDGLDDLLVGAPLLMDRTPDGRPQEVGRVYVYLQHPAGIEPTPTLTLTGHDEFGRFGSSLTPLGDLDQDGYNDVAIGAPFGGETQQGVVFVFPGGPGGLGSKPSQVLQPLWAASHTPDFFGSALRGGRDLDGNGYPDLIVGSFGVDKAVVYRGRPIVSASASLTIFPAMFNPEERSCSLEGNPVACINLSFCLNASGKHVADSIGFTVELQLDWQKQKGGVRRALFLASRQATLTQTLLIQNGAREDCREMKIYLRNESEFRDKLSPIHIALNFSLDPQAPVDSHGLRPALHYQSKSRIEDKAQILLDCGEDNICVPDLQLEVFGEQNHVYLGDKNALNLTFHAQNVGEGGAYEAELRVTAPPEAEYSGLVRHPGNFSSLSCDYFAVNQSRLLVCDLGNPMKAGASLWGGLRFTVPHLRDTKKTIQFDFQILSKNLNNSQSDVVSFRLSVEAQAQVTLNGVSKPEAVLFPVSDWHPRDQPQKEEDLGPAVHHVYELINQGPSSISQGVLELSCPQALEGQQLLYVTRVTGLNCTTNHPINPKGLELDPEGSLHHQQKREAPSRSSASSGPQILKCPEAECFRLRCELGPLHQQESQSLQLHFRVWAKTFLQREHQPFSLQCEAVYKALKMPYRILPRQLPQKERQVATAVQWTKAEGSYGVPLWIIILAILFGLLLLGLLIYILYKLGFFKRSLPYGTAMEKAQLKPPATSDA
T2 sequence (P05556 21-798 limits assumed, chain 2 of 2): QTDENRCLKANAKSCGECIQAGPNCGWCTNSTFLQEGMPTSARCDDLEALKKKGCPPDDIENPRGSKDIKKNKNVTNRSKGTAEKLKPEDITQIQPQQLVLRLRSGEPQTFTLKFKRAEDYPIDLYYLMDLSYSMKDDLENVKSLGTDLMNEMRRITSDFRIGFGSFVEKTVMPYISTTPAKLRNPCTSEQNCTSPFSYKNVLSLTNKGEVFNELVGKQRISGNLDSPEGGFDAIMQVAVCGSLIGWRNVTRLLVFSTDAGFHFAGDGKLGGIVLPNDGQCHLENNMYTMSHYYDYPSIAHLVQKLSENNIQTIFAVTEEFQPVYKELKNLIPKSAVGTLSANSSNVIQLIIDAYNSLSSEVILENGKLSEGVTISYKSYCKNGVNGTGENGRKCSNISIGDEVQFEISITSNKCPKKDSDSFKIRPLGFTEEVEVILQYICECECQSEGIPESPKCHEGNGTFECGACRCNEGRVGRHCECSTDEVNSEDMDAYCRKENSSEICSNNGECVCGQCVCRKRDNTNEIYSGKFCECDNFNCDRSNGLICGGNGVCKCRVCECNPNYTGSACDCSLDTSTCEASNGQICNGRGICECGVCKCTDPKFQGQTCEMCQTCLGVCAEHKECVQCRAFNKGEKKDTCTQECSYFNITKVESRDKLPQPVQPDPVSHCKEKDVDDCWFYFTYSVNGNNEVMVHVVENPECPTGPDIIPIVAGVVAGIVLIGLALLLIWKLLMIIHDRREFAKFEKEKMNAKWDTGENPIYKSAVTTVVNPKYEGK
T3 sequence (P08515 whole entry): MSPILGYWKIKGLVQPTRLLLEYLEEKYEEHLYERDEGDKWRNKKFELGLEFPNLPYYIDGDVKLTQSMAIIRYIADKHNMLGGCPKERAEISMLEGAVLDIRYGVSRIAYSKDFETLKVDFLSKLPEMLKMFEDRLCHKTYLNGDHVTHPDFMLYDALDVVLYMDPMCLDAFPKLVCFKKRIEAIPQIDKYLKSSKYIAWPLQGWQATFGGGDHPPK
Procedure for control GST: Remaining protein binding sites were blocked by incubating with PBS/0.1% BSA for 30 min at room temperature. After washing with PBS, S2 peptides were added to the wells and incubated in PBS for 2 h at room temperature.

Consider B1, for which, in experiment [1], the binding result is given as “no binding”. Turning to B2, the binding result in experiment [2] is listed as “binds”.

With B3, the binding result in experiment [3] is recorded as “binds”. In the case of B4, the binding result is recorded as “binds” in experiment [4] and “no binding” with control GST.

Take B5: the binding result in experiment [5] and in experiment [6] was “binds” throughout.
